From US20070166779

T1: recombinant human SLPI
T1 chain: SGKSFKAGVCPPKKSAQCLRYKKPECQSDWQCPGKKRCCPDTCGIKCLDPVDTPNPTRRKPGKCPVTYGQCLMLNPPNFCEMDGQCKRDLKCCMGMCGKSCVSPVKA

T2: SLPI present in human saliva
T2 chain: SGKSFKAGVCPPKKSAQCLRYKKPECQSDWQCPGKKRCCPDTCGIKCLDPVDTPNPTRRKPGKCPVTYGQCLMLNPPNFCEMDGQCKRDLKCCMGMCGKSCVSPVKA


Assays:
recombinant human SLPI = target: T1, recombinant human SLPI
[1] = target: T2, SLPI present in human saliva

Row | Protein | cleavage of rSLPI at ten-fold excess of rSLPI (data not shown) (recombinant human SLPI) | cleavage of rSLPI, LC/MS (second peak with additional 18 mass units) (recombinant human SLPI) | cleavage of rSLPI, SDS-PAGE with Coomassie stain (rSLPI:chymase molar ratio 40:1, 37 C) (recombinant human SLPI) | cleavage of SLPI in human saliva, Western analysis [1] | cleavage of rSLPI, LC/MS (1 ug rSLPI, 50 ng protease, 5 hours) (recombinant human SLPI) | cleavage of the reduced form of rSLPI (recombinant human SLPI)
1 | human chymase (protein) IIGGTECKPHSRPYMAYLEIVTSNGPSKFCGGFLIRRNFVLTAAHCAGRSITVTLGAHNITEEEDTWQKLEVIKQFRHPKYNTSTLHHDIMLLKLKEKASLTLAVGTLPFPSQFNFVPPGRMCRVAGWGRTGVLKPGSDTLQEVKLRLMDPQACSHFRDFDHNLQLCVGNPRKTKSAFKGDSGGPLLCAGVAQGIVSYGRSDAKPPAVFTRISHYRPWINQILQAN | Even in a ten-fold excess of rSLPI to chymase most of the rSLPI protein was cleaved | the presence of the second peak indicated that chymase indeed cleaved rSLPI | cleavage of recombinant human SLPI was observed after rSLPI was incubated with human chymase for about 20 minutes | exogenous chymase cleaved SLPI in the saliva sample as it did with the rSLPI |  | 
2 | proteinase 3 (protein) IVGGHEAQPHSRPYMASLQMRGNPGSHFCGGTLIHPSFVLTAAHCLRDIPQRLVNVVLGAHNVRTQEPTQQHFSVAQVFLNNYDAENKLNDVLLIQLSSPANLSASVATVQLPQQDQPVPHGTQCLAMGWGRVGAHDPPAQVLQELNVTVVTFFCRPHNICTFVPRRKAGICFGDSGGPLICDGIIQGIDSFVIWGCATRLFPDFFTRVALYVDWIRSTLR |  |  |  | The larger SLPI cleavage product was not observed when the saliva samples were incubated with cathepsin G, tryptase and proteinase 3 | did not result in the formation of the second peak | Reduction of the rSLPI samples in the presence of the proteases did result in cleavage of the SLPI protein
3 | cathepsin G (protein) IIGGRESRPHSRPYMAYLQIQSPAGQSRCGGFLVREDFVLTAAHCWGSNINVTLGAHNIQRRENTQQHITARRAIRHPQYNQRTIQNDIMLLQLSRRVRRNRNVNPVALPRAQEGLRPGTLCTVAGWGRVSMRRGTDTLREVQLRVQRDRQCLRIFGSYDPRRQICVGDRRERKAAFKGDSGGPLLCNNVAHGIVSYGKSSGVPPEVFTRVSSFLPWIRTTMRS |  |  |  | The larger SLPI cleavage product was not observed when the saliva samples were incubated with cathepsin G, tryptase and proteinase 3 | did not result in the formation of the second peak | Reduction of the rSLPI samples in the presence of the proteases did result in cleavage of the SLPI protein
4 | elastase (protein) IVGGRRARPHAWPFMVSLQLRGGHFCGATLIAPNFVMSAAHCVANVNVRAVRVVLGAHNLSRREPTRQVFAVQRIFENGYDPVNLLNDIVILQLNGSATINANVQVAQLPAQGRRLGNGVQCLAMGWGLLGRNRGIASVLQELNVTVVTSLCRRSNVCTLVRGRQAGVCFGDSGSPLVCNGLIHGIASFVRGGCASGLYPDAFAPVAQFVNWIDSIIQ |  |  |  | Minor digestion of SLPI was observed after the saliva was incubated with elastase | did not result in the formation of the second peak | Reduction of the rSLPI samples in the presence of the proteases did result in cleavage of the SLPI protein
